Measured values published in patent US7384773.

Target: recombinant soluble human beta secretase expressed in CHO-K1 cells (Hu_Asp-2LΔTM(His)6), not treated with HIV protease (UniProt P56817)

HIV-1 protease
cleavage of the F39-V40 bond (N-terminal sequence analysis): nearly 100% cleavage of the F^39-V^40 bond occurred
